From patent publication US20190255165A1 (AMAL THERAPEUTICS, published 2019)

B1: AnaxaZ13Mad5 (other)
chain: MHHHHHHSTVHEILCKLSLEGDHSTPPSAYGSVKPYTNFDAEKRYKNRVASRKSRAKFKQLLQHYREVAAAKSSENDRLRLLLKESLKISQAVHAAHAEINEAGREVVGVGALKVPRNQDWLGVPRFAKFASFEAQGALANIAVDKANLDVEQLESIINFEKLTEWTGS
notes: Recombinant fusion protein with N-terminal MHHHHHH; 18973 Da; also called AnaxZ13Mad5; fusion protein with Anaxa at the N-terminal position, Z13 and MAD5 cargo
B2: Z13Mad5Anaxa (other)
chain: MHHHHHHKRYKNRVASRKSRAKFKQLLQHYREVAAAKSSENDRLRLLLKESLKISQAVHAAHAEINEAGREVVGVGALKVPRNQDWLGVPRFAKFASFEAQGALANIAVDKANLDVEQLESIINFEKLTEWTGSSTVHEILCKLSLEGDHSTPPSAYGSVKPYTNFDAE
notes: Recombinant fusion protein with N-terminal MHHHHHH; 18973 Da; also called fusion protein of cell-penetrating peptide Z13, MAD5 cargo and TLR peptide agonist Anaxa (C-terminal)
B3: EDAZ13Mad5 (other)
chain: MHHHHHHNIDRPKGLAFTDVDVDSIKIAWESPQGQVSRYRVTYSSPEDGIRELFPAPDGEDDTAELQGLRPGSEYTVSVVALHDDMESQPLIGIQSTKRYKNRVASRKSRAKFKQLLQHYREVAAAKSSENDRLRLLLKESLKISQAVHAAHAEINEAGREVVGVGALKVPRNQDWLGVPRFAKFASFEAQGALANIAVDKANLDVEQLESIINFEKLTEWTGS
notes: Recombinant fusion protein with N-terminal MHHHHHH; 25,057 Da; also called fusion protein of TLR4 peptide agonist EDA (N-terminal), Z13 and MAD5 cargo

Legend:
human TLR2 = target: T1, human TLR2 (human, UniProt O60603 21-784); assay: inferred from HEK-Blue hTLR2 reporter cells (QuantiBlue OD and IL-8 ELISA)
T1 construct: whole, on cells; Presented on HEK-Blue hTLR2 reporter cells; also called hTLR2

human TLR4 = target: T2, human TLR4 (human, UniProt O00206 24-839); assay: inferred from IL-8 secretion (ELISA) of HEK-hTLR4 cells, 1 µM
T2 construct: whole, on cells; Presented on HEK-hTLR4 cells; also called hTLR4
T2 sequence (O00206 24-839): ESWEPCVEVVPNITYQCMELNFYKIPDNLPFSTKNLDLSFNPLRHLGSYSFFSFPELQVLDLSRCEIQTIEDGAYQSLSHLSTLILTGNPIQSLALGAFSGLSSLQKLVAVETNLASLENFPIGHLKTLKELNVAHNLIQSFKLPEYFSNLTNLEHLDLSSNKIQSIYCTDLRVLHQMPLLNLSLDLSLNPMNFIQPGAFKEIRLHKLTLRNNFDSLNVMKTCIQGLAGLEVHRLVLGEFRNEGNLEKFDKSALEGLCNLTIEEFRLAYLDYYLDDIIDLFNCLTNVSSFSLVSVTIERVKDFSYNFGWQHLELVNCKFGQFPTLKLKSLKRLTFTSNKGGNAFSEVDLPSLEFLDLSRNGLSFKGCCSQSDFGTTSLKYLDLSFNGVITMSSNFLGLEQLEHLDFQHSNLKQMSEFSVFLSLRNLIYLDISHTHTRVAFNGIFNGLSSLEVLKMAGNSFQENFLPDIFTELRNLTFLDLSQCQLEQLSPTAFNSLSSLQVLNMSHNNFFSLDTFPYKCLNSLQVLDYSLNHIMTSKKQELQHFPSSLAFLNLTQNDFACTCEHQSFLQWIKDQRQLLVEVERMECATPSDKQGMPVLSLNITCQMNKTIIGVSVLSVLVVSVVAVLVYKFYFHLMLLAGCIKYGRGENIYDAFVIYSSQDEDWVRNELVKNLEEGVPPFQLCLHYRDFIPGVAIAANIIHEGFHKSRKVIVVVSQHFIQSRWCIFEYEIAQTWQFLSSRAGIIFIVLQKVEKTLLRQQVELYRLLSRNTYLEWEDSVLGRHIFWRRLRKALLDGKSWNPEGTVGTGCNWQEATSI

T1 sequence (O60603 21-784): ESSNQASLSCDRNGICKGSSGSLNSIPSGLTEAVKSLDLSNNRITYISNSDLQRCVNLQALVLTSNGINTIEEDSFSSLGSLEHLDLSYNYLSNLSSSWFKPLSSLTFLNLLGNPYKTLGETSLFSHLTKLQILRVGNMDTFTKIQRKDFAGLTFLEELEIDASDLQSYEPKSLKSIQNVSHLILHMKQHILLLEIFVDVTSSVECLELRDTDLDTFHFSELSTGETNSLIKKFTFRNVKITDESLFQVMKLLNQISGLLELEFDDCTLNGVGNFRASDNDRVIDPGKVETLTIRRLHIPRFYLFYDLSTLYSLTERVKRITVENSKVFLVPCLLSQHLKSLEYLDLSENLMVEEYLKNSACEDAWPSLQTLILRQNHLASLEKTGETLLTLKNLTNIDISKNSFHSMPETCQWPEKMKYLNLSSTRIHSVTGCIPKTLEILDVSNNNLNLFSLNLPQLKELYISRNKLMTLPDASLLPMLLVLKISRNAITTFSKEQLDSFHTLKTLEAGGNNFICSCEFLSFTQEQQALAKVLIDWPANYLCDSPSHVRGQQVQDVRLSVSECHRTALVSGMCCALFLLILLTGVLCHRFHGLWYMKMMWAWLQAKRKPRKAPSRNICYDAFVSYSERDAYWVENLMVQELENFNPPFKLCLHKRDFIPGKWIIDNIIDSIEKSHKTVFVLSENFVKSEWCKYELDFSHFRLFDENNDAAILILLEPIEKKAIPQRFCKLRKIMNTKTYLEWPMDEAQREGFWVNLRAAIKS

Binder | binding result (human TLR2) | binding result (human TLR4)
B1 | binds | –
B2 | binds | binds
B3 | – | binds
